Consider three compounds from patent publication US20210338782A1, “STORAGE STABLE SOMATOSTATIN-DOPAMINE CHIMERIC COMPOUNDS AND SALT FORMS THEREOF” (Cydan II, Inc., priority 2019, published 2021).

Where a name gives a salt, the structure may show the parent alone.

This data set is described as follows: FIG. 6B. From the text: Table printed on a drawing sheet, FIG. 6B
Footnotes: *N=2 with Animal 2 excluded.
First reader's note: Each Cmax and AUC0-t cell holds the value together with its SD; the sheet prints no units for Cmax or AUC0-t.

For `CCCN1C[C@H](CSCC(=O)NCCCC[C@@H](NC(=O)CSC[C@@H]2C[C@@H]3c4cccc5[nH]cc(c45)C[C@H]3N(CCC)C2)C(=O)N[C@H]2CSSC[C@@H](C(=O)N[C@H](C(N)=O)[C@@H](C)O)NC(=O)[C@H](CC)NC(=O)[C@H](CCCCN)NC(=O)[C@@H](Cc3c[nH]c4ccccc34)NC(=O)[C@H](Cc3ccc(O)cc3)NC2=O)C[C@@H]2c3cccc4[nH]cc(c34)C[C@H]21` [TBR-760 Acetate*], the “Tmax (median in hr)” value was 24 h.

Regarding `CCCN1C[C@H](CSCC(=O)NCCCC[C@@H](NC(=O)CSC[C@@H]2C[C@@H]3c4cccc5[nH]cc(c45)C[C@H]3N(CCC)C2)C(=O)N[C@H]2CSSC[C@@H](C(=O)N[C@H](C(N)=O)[C@@H](C)O)NC(=O)[C@H](CC)NC(=O)[C@H](CCCCN)NC(=O)[C@@H](Cc3c[nH]c4ccccc34)NC(=O)[C@H](Cc3ccc(O)cc3)NC2=O)C[C@@H]2c3cccc4[nH]cc(c34)C[C@H]21` [TBR-760 Tosylate], the “Tmax (median in hr)” value came to 30 h.

With `CCCN1C[C@H](CSCC(=O)NCCCC[C@@H](NC(=O)CSC[C@@H]2C[C@@H]3c4cccc5[nH]cc(c45)C[C@H]3N(CCC)C2)C(=O)N[C@H]2CSSC[C@@H](C(=O)N[C@H](C(N)=O)[C@@H](C)O)NC(=O)[C@H](CC)NC(=O)[C@H](CCCCN)NC(=O)[C@@H](Cc3c[nH]c4ccccc34)NC(=O)[C@H](Cc3ccc(O)cc3)NC2=O)C[C@@H]2c3cccc4[nH]cc(c34)C[C@H]21` [TBR-760 Mesylate], the “Tmax (median in hr)” value was 30 h.
